Measurements from patent publication US20110098227.

Tested on: NusA-Notch fusion protein (NusA fused to mouse Notch-1 N1703-D1860 with C-terminal Flag and 8His tags), uncleaved

Substance: solubilized gamma-secretase from HeLa cells
- apparent Km for hydrolysis (Notch cleavage ELISA): about 0.7 µM
- specific cleavage at the 1743-1744 junction: γ-secretase activity from HeLa cells specifically cleaves the Notch protein at the 1743-1744 junction
